Values of other authors in article PMC4596410.

Target: Lys115 (UniProt position 115, LSAYPKKLGYP)

In the case of “Acetoacetate decarboxylase (not stated in the article (Clostridium acetobutylicum inferred))”, the pKa is given as 6.
